Experimental data from paper PMC6445127, “WNT5A is transported via lipoprotein particles in the cerebrospinal fluid to regulate hindbrain morphogenesis” (Nature Communications, 2019).

Biological target: T1, human native APOJ (human, UniProt P10909 23-227; P10909 228-449)
T1 construct: Apolipoprotein J (Clusterin), human, native; also called isolated APOJ protein; Clusterin; source: bought: Biovendor (RD162034025)
Experiment: co-IP; in vitro protein binding assay: 2 μg human native APOJ incubated with 150 ng recombinant WNT5A in 200 μl binding buffer (50 mM Tris pH 7.6, 100 mM NaCl, 1 mM EDTA) overnight at 4 °C; precipitated with corresponding antibody or IgG on DynaBeads; washes with 0.5% NP40
Settings: both partners purified

T1 sequence (P10909 23-227, chain 1 of 2): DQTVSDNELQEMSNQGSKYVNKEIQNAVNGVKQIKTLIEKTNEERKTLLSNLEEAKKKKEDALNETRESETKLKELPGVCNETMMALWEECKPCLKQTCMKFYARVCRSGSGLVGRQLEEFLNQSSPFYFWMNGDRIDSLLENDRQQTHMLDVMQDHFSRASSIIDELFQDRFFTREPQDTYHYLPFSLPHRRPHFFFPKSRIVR
T1 sequence (P10909 228-449, chain 2 of 2): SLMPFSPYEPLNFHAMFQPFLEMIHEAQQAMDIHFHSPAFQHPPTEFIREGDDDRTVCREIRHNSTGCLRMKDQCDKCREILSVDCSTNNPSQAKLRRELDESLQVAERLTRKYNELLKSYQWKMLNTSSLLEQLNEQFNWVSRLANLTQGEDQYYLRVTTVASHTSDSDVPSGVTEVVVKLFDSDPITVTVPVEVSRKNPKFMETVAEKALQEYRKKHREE

B1: recombinant WNT5A (ligand, UniProt P22725 62-380, looked up)
chain: IIGAQPLCSQLAGLSQGQKKLCHLYQDHMQYIGEGAKTGIKECQYQFRHRRWNCSTVDNTSVFGRVMQIGSRETAFTYAVSAAGVVNAMSRACREGELSTCGCSRAARPKDLPRDWLWGGCGDNIDYGYRFAKEFVDARERERIHAKGSYESARILMNLHNNEAGRRTVYNLADVACKCHGVSGSCSLKTCWLQLADFRKVGDALKEKYDSAAAMRLNSRGKLVQVNSRFNSPTTQDLVYIDPSPDYCVRNESTGSLGTQGRLCNKTSEGMDGCELMCCGRGYDQFKTVQTERCHCKFHWCCYVKCKKCTEIVDQFVCK
notes: recombinant WNT5A, R&D Systems; 'P22725' is printed where a catalogue number would stand; elsewhere the catalogue number 645-WN-010 is printed; WNT5A'; also called rcWNT5A; rcWnt5a; source: bought: R&D Systems
binding result: binds
